Experimental data taken from patent US20040224337.

Columns and labels:
[1] = tested on: FASpTyr275 peptide (Biotin-KKEAY(PO3)DTLI-COOH)
FAS = FAS (UniProt P25445)
UniProt P25445, sequence (P25445 26-335): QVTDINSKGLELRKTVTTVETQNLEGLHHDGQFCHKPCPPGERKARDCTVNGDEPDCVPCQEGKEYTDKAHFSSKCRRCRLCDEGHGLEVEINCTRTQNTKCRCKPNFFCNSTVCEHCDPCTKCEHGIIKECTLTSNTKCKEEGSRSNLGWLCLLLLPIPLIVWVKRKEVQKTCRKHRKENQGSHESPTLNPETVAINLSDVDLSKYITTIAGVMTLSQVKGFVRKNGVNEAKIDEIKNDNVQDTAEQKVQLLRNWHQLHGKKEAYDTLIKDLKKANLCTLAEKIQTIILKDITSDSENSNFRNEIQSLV

Substance: PTPL1/FAP-1
- in vitro phosphatase assay (dephosphorylation relative to vector as percent activity) [1]: FAP-1 immunoprecipitated from overexpressing cells dephosphorylates the biotinylated phospho-peptide (FASpY275) in an in vitro phosphatase assay
- tyrosine phosphorylation of immunoprecipitated FAS (PY20-HRP blot after incubation in phosphatase reaction buffer) (FAS): endogenous FAP-1 dephosphorylates FAS
